Data set [1] relates to TE671 cells. The method, then:
To evaluate the toxicity of Spep-1 and Spep-2, WST Assay was performed on TE671 cells.

Data set [2] concerns BALB/c mice. Format: in vivo. The method, then:
Specifically, the DAS values for Palmitoyl-L3-37 in Example 18 were evaluated. […]; and a group treated with a saline solution (sterilized 0.9% NaCl) or 70 μg/kg bungarotoxin as a control group. Then, palmitoyl-L3-37 and the saline solution or bungarotoxin at the concentrations as above were injected each 50 μl into the hind thigh muscles of mice. Thereafter, the mice weight and the sole of the injected portion were observed and recorded every day, and the results are shown in FIGS. 37 to 39.

Data set [3] has as its target Acetylcholine receptor proteins (AchR) (Homo sapiens, UniProt P02708). Format: binding. To be noted: for AchR binding affinity compared with Spep-2 / AchR binding affinity / AchR binding affinity (resonance units: Ru) among representative peptides: SPR; for AchR binding affinity: 10 μM peptides, compared with Synake; for AchR binding affinity (resonance units: Ru) among representative peptides: peptides 3 μM. The method, then:
Spep-1 to Spep-11 selected in Example 1 were synthesized, and the AchR binding affinity was compared thereamong using a surface plasmon resonance (SPR) analyzer (Biacore3000, Biacore A, Sweden). […]
The treatment concentrations of Spep-2 were 0.12 to 1 μM, and the dissociation constant was compared while Synake was used as a positive control.

Data set [4] addresses T1, AchR (Homo sapiens, UniProt P02708). The data set is described as follows: ELISA of screened peptide phages on AchR versus streptavidin (OD450). Particulars: absorbance at 450 nm. In kind it is binding. A digest of the protocol:
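Phage supernatants from 4th–5th round plaques, in 2% BSA, applied 1 h at 30 °C to wells coated with 5 μg/ml AchR or streptavidin. Bound phage detected with HRP anti-M13 and TMB at OD450; value given as AchR/streptavidin signal ratio.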
Target sequence in this assay (P02708 21-457): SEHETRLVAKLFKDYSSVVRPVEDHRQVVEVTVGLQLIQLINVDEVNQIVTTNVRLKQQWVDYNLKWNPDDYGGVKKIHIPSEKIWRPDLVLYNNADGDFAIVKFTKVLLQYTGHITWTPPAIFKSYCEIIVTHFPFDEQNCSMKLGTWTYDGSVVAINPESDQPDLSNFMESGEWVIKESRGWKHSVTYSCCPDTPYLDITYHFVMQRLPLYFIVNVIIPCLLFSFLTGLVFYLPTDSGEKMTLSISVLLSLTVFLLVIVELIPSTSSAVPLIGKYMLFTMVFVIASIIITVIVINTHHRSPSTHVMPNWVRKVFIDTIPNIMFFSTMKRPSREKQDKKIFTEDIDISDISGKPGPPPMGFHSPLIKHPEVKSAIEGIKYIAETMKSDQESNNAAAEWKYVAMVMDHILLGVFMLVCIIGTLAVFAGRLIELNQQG

The target of data set [5] is T1, AchR. The data set is described as follows: cell-based. Format: cell-based. On the set-up: endogenous in cells; host or cells: TE671. Particulars: for AchR inhibitory effect: acetylcholine treatment.
Target sequence in this assay (P02708 21-457): as above
Target sequence in this assay (Q07001 22-517, further chain): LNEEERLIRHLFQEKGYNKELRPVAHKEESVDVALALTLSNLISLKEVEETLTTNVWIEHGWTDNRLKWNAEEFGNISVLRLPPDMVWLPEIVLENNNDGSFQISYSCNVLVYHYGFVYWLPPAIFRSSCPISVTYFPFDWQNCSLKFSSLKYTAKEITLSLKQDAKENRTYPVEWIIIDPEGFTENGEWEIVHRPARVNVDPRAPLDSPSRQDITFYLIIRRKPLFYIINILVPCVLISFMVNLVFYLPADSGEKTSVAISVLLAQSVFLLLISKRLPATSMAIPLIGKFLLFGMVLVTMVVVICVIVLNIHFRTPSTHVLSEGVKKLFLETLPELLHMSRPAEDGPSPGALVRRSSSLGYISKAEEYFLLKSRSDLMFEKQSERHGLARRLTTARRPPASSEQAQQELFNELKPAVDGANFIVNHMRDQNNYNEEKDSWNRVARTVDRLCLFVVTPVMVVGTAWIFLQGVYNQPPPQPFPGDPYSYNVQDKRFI
Target sequence in this assay (P07510 23-517, further chain): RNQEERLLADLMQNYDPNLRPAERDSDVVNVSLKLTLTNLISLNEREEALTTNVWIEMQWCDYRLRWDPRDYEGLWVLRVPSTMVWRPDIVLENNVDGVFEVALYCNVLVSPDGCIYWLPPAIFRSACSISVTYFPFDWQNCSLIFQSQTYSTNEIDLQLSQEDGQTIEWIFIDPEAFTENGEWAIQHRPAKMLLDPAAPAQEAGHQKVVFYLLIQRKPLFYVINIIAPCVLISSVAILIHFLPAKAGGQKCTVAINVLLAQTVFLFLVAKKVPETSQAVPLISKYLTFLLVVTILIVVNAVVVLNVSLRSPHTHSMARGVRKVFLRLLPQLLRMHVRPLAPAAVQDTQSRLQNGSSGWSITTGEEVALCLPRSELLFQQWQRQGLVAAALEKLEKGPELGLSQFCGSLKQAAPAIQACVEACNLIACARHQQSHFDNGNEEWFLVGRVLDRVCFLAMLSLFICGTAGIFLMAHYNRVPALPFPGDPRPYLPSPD
Target sequence in this assay (P11230 24-501, further chain): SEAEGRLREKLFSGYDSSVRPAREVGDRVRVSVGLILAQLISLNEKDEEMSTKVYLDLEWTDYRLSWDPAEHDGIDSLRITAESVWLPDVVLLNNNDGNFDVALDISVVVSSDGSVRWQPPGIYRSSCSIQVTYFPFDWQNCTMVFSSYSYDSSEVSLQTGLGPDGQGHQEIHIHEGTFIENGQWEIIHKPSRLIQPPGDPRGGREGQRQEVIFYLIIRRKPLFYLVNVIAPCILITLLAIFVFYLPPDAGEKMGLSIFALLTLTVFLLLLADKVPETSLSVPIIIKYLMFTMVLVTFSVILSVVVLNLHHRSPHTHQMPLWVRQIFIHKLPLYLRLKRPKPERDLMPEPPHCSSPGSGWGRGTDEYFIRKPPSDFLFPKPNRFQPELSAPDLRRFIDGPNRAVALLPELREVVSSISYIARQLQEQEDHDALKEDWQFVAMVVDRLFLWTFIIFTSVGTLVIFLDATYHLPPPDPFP
[6] abbreviates: ELISA of selected 11-mer (L2) peptide phages on AchR, Spep-2 positive control.
The mark [7] stands for this setting: ELISA of selected 14-mer (L3) peptide phages on AchR, Spep-2 positive control.
Setting [8] is: phage ELISA, 5 μg/ml AchR, 4th and 5th round biopanning phages.

Read-outs that look alike come from different tables or passages of the source. Non-standard residues stand in square brackets, D forms with d. Residues, ends and D or L forms follow the SMILES beside them. No end group written: not given here. *: point of attachment. Palmitoyl = CCCCCCCCCCCCCCCC(=O)*; Dab = NCC[C@H](N)C(=O)O; NHBn = c1ccc(CN*)cc1; βAla = NCCC(=O)O

The source of these data is patent US20260000597A1 (priority 2018, published 2026).

Sequence of Acetylcholine receptor proteins (AchR) (P02708 21-457): as the sequence (P02708 21-457) above

With `NCCC(=O)N1CCC[C@H]1C(=O)N[C@@H](CCN)C(=O)NCc1ccccc1` [Synake, reference compound] (H-[βAla]-Pro-[Dab]-NHBn; N-terminus and C-terminus assumed), the “toxicity (WST assay)” value in data set [1] (TE671 cells, treatment concentration of 100 μM) is recorded as “no toxicity”.
With `CCCCCCCCCCCCCCCC(=O)N[C@@H](CO)C(=O)N[C@@H](CC(N)=O)C(=O)N[C@H](C(=O)N[C@@H](CCCCN)C(=O)N[C@@H](CCCNC(=N)N)C(=O)N[C@@H](CCCCN)C(=O)N[C@@H](CCCNC(=N)N)C(=O)NCC(=O)N[C@@H](CCCNC(=N)N)C(=O)N[C@@H](CS)C(=O)N[C@@H](CCCCN)C(=O)N1CCC[C@H]1C(=O)N[C@@H](Cc1ccc(O)cc1)C(=O)N[C@@H](CCCNC(=N)N)C(=O)O)C(C)C` [Palmitoyl-L3-37] (Palmitoyl-SNVKRKRGRCKPYR-OH), the weight of mice result in data set [2] (all groups, 7 days after administration) is reported as “gradually increased”. In data set [2] (up to 25 mg/kg IM, 7 days), the acute toxicity result is “no toxicity was observed”.
For the compound GRKSLLR [Spep-2-ND4], in data set [3], the “AchR binding affinity compared with Spep-2” value is “significantly reduced binding affinity”.
Take WTWKGNKQVKF [Spep-10]: in data set [3], the AchR binding affinity result was “high AchR binding affinity compared with Synake”.
Take WTWKGRKSLLR [Spep-2, WTWKGRKSLLR]: the AchR binding affinity entry in data set [3] is recorded as “high AchR binding affinity compared with Synake”. In addition, in data set [3] (from Kd values), the “AchR binding affinity superior to that of Synake” value is “about 2,000 times”. Further, the OD in data set [4] (setting [6]), in data set [4] (setting [7]) and in data set [4] (setting [8]) was 0.303 throughout. Besides, the “toxicity (WST assay)” value in data set [1] is given as “no toxicity”. In data set [5], this compound returned an IC50 of 750 nM. Moreover, the AchR inhibitory effect came to 90% in data set [5] (peptide 0.5 μM, TE671 cells) and 100% in data set [5] (peptide 5 μM, TE671 cells). Further, in data set [5] (nicotine 400 μM, peptide 20 μM, TE671 cells), the AchR inhibitory rate result is “about 10%”. Also, the AchR inhibition entry is listed as “could not inhibit” in data set [5] (nicotine 400 μM, peptide 70 μM) and 100% in data set [5] (nicotine 400 μM, peptide 80 μM). Moreover, the “nicotinic acetylcholine receptor inhibitory effects” value in data set [5] (nicotine treatment, compared with Synake, TE671 cells) was “excellent nicotinic acetylcholine receptor inhibitory effects”.
“L3-37: 14-mer optimized peptide of the L3 library (Table 12, not shown here) (SNVKRKRGRCKPYR; AchR binding peptide) [Peptide L3-37]”: the “AchR binding affinity (resonance units: Ru) among representative peptides” value in data set [3] is given as “highest binding affinity”. In data set [4] (setting [7]), this compound returned an OD of 0.69.
As for “L2-110: 11-mer optimized peptide of the L2 library (Table 11, not shown here) (RYAKHRKRQTR; AchR binding peptide) [Peptide L2-110]”, in data set [3], the “AchR binding affinity (resonance units: Ru) among representative peptides” value was “higher binding affinity to AchR compared with the 8-mer L1-13”. Further, the OD in data set [4] (setting [6]) turned out to be 0.831. Moreover, the AchR inhibition entry in data set [5] (nicotine 400 μM, peptide 5 μM) is on record as “could not inhibit”.
For “L3-28: 14-mer optimized peptide of the L3 library (Table 12, not shown here) (PNGKVRKRIRRRYF; AchR binding peptide) [Peptide L3-28]”, the “AchR binding affinity (resonance units: Ru) among representative peptides” value in data set [3] is listed as “highest binding affinity”. Moreover, the OD in data set [4] (setting [7]) amounted to 0.803. Also, the AchR inhibition result in data set [5] (nicotine 400 μM, peptide 2.5 μM) was “could not inhibit”.
For the compound “L3-27: 14-mer optimized peptide of the L3 library (Table 12, not shown here) (RARKKRKSLLRRQV; AchR binding peptide) [Peptide L3-27]”, the “AchR binding affinity (resonance units: Ru) among representative peptides” value in data set [3] is reported as “highest binding affinity”. In data set [4] (setting [7]), this compound showed an OD of 0.83. The AchR inhibition is listed as 50% in data set [5] (nicotine 400 μM, peptide 1 μM) and “could not inhibit” in data set [5] (nicotine 400 μM, peptide 5 μM).
As to `CCCCCCCCCCCCCCCC(=O)N[C@@H](Cc1c[nH]c2ccccc12)C(=O)N[C@H](C(=O)N[C@@H](Cc1c[nH]c2ccccc12)C(=O)N[C@@H](CCCCN)C(=O)NCC(=O)N[C@@H](CCCNC(=N)N)C(=O)N[C@@H](CCCCN)C(=O)N[C@@H](CO)C(=O)N[C@@H](CC(C)C)C(=O)N[C@@H](CC(C)C)C(=O)N[C@@H](CCCNC(=N)N)C(=O)O)[C@@H](C)O` [Palmitoyl-Spep-2] (Palmitoyl-WTWKGRKSLLR-OH), the “cytotoxicity (WST assay)” value in data set [1] was “no cytotoxicity”.
RKSLLR [Spep-2-ND5, RKSLLR]: in data set [3], the “binding affinity reduced compared with Spep-2 (11-mer)” value worked out at 48 times and the “AchR binding affinity compared with Spep-2” value is recorded as “significantly reduced binding affinity”.
Consider WTWKGRDKLQM [Spep-4], for which, in data set [3], the AchR binding affinity result is reported as “high AchR binding affinity compared with Synake”.
On to “L3-50 (VFDKFRKTENRGVI; AchR binding peptide) [Peptide L3-50]”, for which the OD in data set [4] (setting [7]) was 0.634.
In turn, RGRRGTMR [Peptide L1-93] gave an OD in data set [4] (setting [8]) of 0.616.
Take “L2-39 (LMTKNRRNSFR; AchR binding peptide) [Peptide L2-39]”: the OD in data set [4] (setting [6]) was 0.669.
On the same count and under the same terms, to “L2-171 (YGTRPKKYVSK; AchR binding peptide) [Peptide L2-171]” belongs 0.689; to “L2-154 (NPFKYKKICPK; AchR binding peptide) [Peptide L2-154]”, 0.736.
On the same count and under the same terms, to “L2-197 (CPYRIRRGPGK; AchR binding peptide) [Peptide L2-197]” belongs 0.768.
Consider “L3-175 (TCHKTKRSIMRATS; AchR binding peptide) [Peptide L3-175]”, for which the OD in data set [4] (setting [7]) amounted to 0.768.
With “L2-163 (PHARTRKNITK; AchR binding peptide) [Peptide L2-163]”, the OD in data set [4] (setting [6]) was 0.725.
In data set [4] (setting [7]), “L3-9 (NCNRFRRTIVRHCH; AchR binding peptide) [Peptide L3-9]” registered an OD of 0.725.
In the case of “L2-96 (ISDKAKRQHFK; AchR binding peptide) [Peptide L2-96]”, in data set [4] (setting [6]), the OD stood at 0.708.
In data set [4] (setting [6]), “L2-148 (DSNKVRKCSSK; AchR binding peptide) [Peptide L2-148]” registered an OD of 0.604.
As to “L3-173 (QLGKQKREATREYV; AchR binding peptide) [Peptide L3-173]”, the OD in data set [4] (setting [7]) turned out to be 0.775.
Compound RFRKPTDR [Peptide L1-127] registered an OD in data set [4] (setting [8]) of 0.412.
WTWKGKGTLNR [Spep-1, WTWKGKGTLNR]: the “toxicity (WST assay)” value in data set [1] is “no toxicity”.
Regarding “L3-178 (PDLKFRKHQDRTAI; AchR binding peptide) [Peptide L3-178]”, in data set [4] (setting [7]), the OD worked out at 0.755.
For “L3-122 (MHPRPRKMSHKMSC; AchR binding peptide) [Peptide L3-122]”, the OD in data set [4] (setting [7]) is 0.691.
The same measure, in the same setting: to “L3-10 (AHGKDRRYVEKLEV; AchR binding peptide) [Peptide L3-10]” belongs 0.769; to “L3-61 (THDKCKKHNDKQAH; AchR binding peptide) [Peptide L3-61]”, 0.768.
